Assay results reported in patent publication US20250066490A1, “ANTI-CD70 ANTIBODIES, CONJUGATES THEREOF AND METHODS OF USING THE SAME” (ProfoundBio US Co., priority 2021, published 2025).
Where two headings read alike, the source gives them in different places.

How the values were obtained:
786-O cells = test: Internalization by FACS immune-fluorescence staining, 786-O; assay type: cell-based, human
Method: (§1) Briefly, 2×10^5 cells were harvested from a tissue culture flask by treatment with 0.25% Trypsin/EDTA and then incubated with 10 μg/ml of the lead antibodies or control antibodies in FACS buffer (1×PBS with 0.1% BSA) for 30 mins at 4° C. The cells were washed at 4° C. to remove unbound antibodies and kept on ice or shifted to 37° C. At the set time points (0 h, 4 h, 24 h), cells were incubated with PE-conjugated anti human Fc (Abcam, Ab98596) for 30 mins at 4° C. and then analyzed by flow cytometry. The internalization ratio was calculated by subtracting the 37° C. MFI from the 4° C. MFI, and then compared with 4° C. MFI.
(§2) Four cell lines ([…]), Caki-1, Raji, MCF-7) were utilized in the internalization assay. Target (CD70) copy numbers were determined via the QIFIKIT (DAKO, K0078). Briefly, cells were labeled with a primary mouse monoclonal antibody against CD70. Cells, Set-up beads, Calibration beads (from the kit) were then labeled in parallel with a fluorescein-conjugated anti-mouse secondary antibody. The fluorescence is correlated with the number of bound primary antibody molecules on the cells and on the beads. Samples were subsequently analyzed on the flow cytometer and copy number determined based on the calibration curve (Table 11). For internalization assay, 3×10^5 cells were incubated at 4° C. for 30 min with 10 µg/ml 2E7 in FACS buffer (1×PBS containing 0.1% BSA). Cells were washed at 4° C. to remove unbound material and kept on ice or shifted to 37° C. for different lengths of time. At progressive timepoints ([…], 0.5, 1, 2, 3, 4 hr) cells were stained with PE-conjugated anti-human Fc for 30 min at 4° C. and analyzed by flow cytometry. Internalization rate were calculated by subtracting the mean fluorescence intensity (MFI) of cell surface-bound antibody at 37° C. at each time point from the MFI of cell surface-bound antibody at 4° C. at time 0, then divided by the MFI of the cell surface-bound antibody at 4° C. at time 0.

[1] = test system: cynomolgus CD70 recombinant protein; test: Antibody binding ELISA, cynomolgus CD70; conditions: full IgG, FIG. 3
Method: The binding specificity of the CD70 antibodies was tested by ELISA according to a standard protocol. Briefly, 96-well micro-plates were coated with 2 μg/ml of human or cynomolgus CD70 recombinant protein in PBS at 100 μl per well and incubated overnight at 4° C. The plates were washed twice with TBS+0.5% Tween20. 200 μL of blocking buffer (2% BSA in PBS) was added to each well, and the plates were incubated at 37° C. for 2 hours. The plates were washed using the wash buffer mentioned above. Serially diluted antibodies were added to the ELISA plates using 100 μl per well, and the plates were incubated for 1 hour at room temperature. Then plates were washed 3 times. HRP conjugated anti-human Fc antibody solution (Sigma, I18885-2ML, diluted with blocking buffer) was added to the plates using 100 μl per well. The plates were incubated at room temperature for 1 hour and then washed 3 times. Then the TMB solution was added to plates using 100 μl per well and the plates were placed at RT for 5-15 mins. Then the stop solution (2M H2SO4) was added using 50 μl per well. The absorbance was measured at A450 and A630.

Caki-1 cells = test: Internalization by FACS immune-fluorescence staining, Caki-1; assay type: cell-based, human
Method: as §1, §2

2E7 rat PK = assay type: in vivo, Sprague Dawley rats; conditions: intravenous infusion, 3 mg/kg, FIG. 14
Method: 2E7 was administered via intravenous infusion at 3 mg/kg to male Sprague Dawley rats (n=3 per group). Orbital blood was sampled from each rat at various time points post dosing. Circulating concentrations of 2E7 were analyzed by an ELISA assay (ProfoundBio) and calculated using the GraphPad Prism 6 software.

[2] = target: T1, human CD70 extra-cellular domain (ECD) (Homo sapiens, UniProt P32970); test: Biolayer interferometry (BLI), human CD70; assay type: binding
T1 construct: human, rat, or mouse CD70 extra-cellular domain (ECD) linked to His tag; His tag; purchased ACRO systems
T1 sequence (P32970 39-193 limits assumed): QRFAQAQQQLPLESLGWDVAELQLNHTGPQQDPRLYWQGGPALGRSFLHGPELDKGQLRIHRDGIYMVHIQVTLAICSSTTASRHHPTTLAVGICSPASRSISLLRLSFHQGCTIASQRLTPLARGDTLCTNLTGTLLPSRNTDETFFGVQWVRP
Method: Recombinant proteins consisting of human, rat, or mouse CD70 extra-cellular domain (ECD) linked to His tag was purchased (from ACRO systems). 69A7 and 2E7 (20 nM) were immobilized on anti-human IgG Fc biosensor tips (ForteBio). Binding assays using one concentration (100 nM) of recombinant protein in solution were performed using Octet RED (ForteBio). Association time was set at 180s and dissociation time was set at 300s. Binding affinity was calculated using ForteBio Data Acquisition 6.3 software. Affinity was derived by fitting the kinetic data to a 1:1 Langmuir binding model utilizing global fitting algorithms. […] Binding assays for 2E7 using multiple dilutions (from 200 nM down to 3.13 nM) of species' recombinant CD70 ECD proteins in solution were also performed using the same method.

[3] = test system: CD70-negative cell line (MCF-7); test: Internalization time course, MCF-7; assay type: cell-based; conditions: MCF-7, up to 4 hr, FIG. 13
Method: as §2

cyno CD70 ECD = test: Biolayer interferometry (BLI), cyno CD70; assay type: binding
[4] = Hu CD70 100 nM, one concentration

B1: 2E7: anti-CD70 antibody clone, VH SEQ 7 and VL SEQ 8; tested as scFv and full human IgG1/kappa (antibody, V domains shown)
VH: QVQLQESGPGLVKPSETLSLTCTVSGGSVSSDYYYWSWIRQPPGKGLEWLGYIYYSGSTNYNPSLKSRVTISVDTSKNQFSLKLRSVTTADTAVYYCARGDGDFLGVCFDYWGQGTLVTVSS
VL: EIVLTQSPATLSLSPGERATLSCRASQSVSSYLAWYQQKPGQAPRLLIFDASNRATGIPARFSGSGSGTDFTLTISSLEPEDFAVYYCQQRSNWPLTFGGGTKVEIK
modifications: Synthetic 2E7 VH amino acid sequence; Synthetic 2E7 VL amino acid sequence
notes: tested as scFv and full human IgG1/kappa
In the case of B1, the “absolute amount of antibody internalized into cell vs parent antibody 69A7” value (786-O cells; based on the cell binding affinity) is reported as “higher absolute amount of antibody internalized into cell than the parent antibody 69A7”, the “internalization, time course” value (786-O cells; up to 4 hr, FIG. 13) is reported as “rapid internalization” and the “cross binding activity to the cyno-antigen” value [1] is reported as “better cross binding activity to the cyno-antigen than antibody 69A7”. For the same molecule, the “absolute amount of antibody internalized into cell vs parent antibody 69A7” value (Caki-1 cells; Caki-1, based on the cell binding affinity) was “higher absolute amount of antibody internalized into cell than the parent antibody 69A7”, the “internalization, time course” value (Caki-1 cells; Caki-1, up to 4 hr, FIG. 13) was “rapid internalization” and the “plasma PK” value (2E7 rat PK) was “stable plasma PK in rat that is characteristic of IgG1 antibodies”. The Response ([2]; HU CD70 3.13 nM) was 0.1732, the Response ([2]; HU CD70 6.25 nM) was 0.2136 and the Response ([2]; HU CD70 12.5 nM) was 0.3519. It also gave a Response ([2]; HU CD70 25 nM) of 0.5319, a Response ([2]; HU CD70 50 nM) of 0.6227 and a Response ([2]; HU CD70 100 nM, dilution series) of 0.7695. For the same molecule, the Response ([2]; HU CD70 200 nM) was 0.825, the “ka” value ([2]; HU CD70, multiple dilutions 200-3.13 nM, global fit) was 314300 M⁻¹ s⁻¹ and the Response [2, 4] was 0.5157. For the same molecule, the “ka” value [2, 4] was 365000 M⁻¹ s⁻¹, the Kd ([2]; human CD70, multiple dilutions (200 nM down to 3.13 nM), read-out: KD) was 0.81 nM and the Kd ([2]; human CD70, one concentration (100 nM), read-out: equilibrium dissociation constant (KD)) was 0.97 nM. The “internalization, time course” value [3] was “no internalization”, the Response (cyno CD70 ECD; CYNO CD70 3.13 nM) was 0.1275 and the Response (cyno CD70 ECD; CYNO CD70 6.25 nM) was 0.204. For the same molecule, the Response (cyno CD70 ECD; CYNO CD70 12.5 nM) was 0.2927, the Response (cyno CD70 ECD; CYNO CD70 25 nM) was 0.3702 and the Response (cyno CD70 ECD; CYNO CD70 50 nM) was 0.4136. The Response (cyno CD70 ECD; CYNO CD70 100 nM) was 0.4825, the Response (cyno CD70 ECD; CYNO CD70 200 nM) was 0.4991 and the “ka” value (cyno CD70 ECD; CYNO CD70, multiple dilutions 200-3.13 nM, global fit) was 617800 M⁻¹ s⁻¹.
